From paper PMC9482650, “Quantitative fragmentomics allow affinity mapping of interactomes” (Nature Communications, 2022)

What was measured:
Experiment in all cases: holdup assay
Design in all cases: key: below the threshold = too weak to quantify, mostly under pKd 3.1 to 4
RADIL, Q96JH8 = molecular target: T1, RADIL, Q96JH8
T1 sequence (Q96JH8 971-1071, limits assumed, looked up): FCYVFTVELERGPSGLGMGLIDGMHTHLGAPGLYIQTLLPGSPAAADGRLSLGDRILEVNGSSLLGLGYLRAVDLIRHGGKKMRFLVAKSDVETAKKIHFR

MAST2, Q6P0Q8 = molecular target: MAST2, Q6P0Q8
Chain of MAST2, Q6P0Q8 (Q6P0Q8 1099-1202): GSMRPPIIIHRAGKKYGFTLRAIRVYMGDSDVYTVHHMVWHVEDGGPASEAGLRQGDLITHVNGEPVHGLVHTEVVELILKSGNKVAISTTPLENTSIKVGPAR

SHROOM4, Q9ULL8 = molecular target: T2, SHROOM4, Q9ULL8
T2 sequence (Q9ULL8 5-102, limits assumed, looked up): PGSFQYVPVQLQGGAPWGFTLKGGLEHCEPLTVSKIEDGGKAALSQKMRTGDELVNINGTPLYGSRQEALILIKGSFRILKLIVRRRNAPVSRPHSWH

PDZD4, Q76G19 = molecular target: T3, PDZD4, Q76G19
T3 sequence (Q76G19 125-224, limits assumed, looked up): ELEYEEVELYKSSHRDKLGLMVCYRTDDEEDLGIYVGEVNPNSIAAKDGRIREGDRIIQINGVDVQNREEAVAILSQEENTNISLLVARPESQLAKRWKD

MAGI3_4, Q5TCQ9 = molecular target: MAGI3_4, Q5TCQ9
Chain of MAGI3_4, Q5TCQ9 (Q5TCQ9 716-815): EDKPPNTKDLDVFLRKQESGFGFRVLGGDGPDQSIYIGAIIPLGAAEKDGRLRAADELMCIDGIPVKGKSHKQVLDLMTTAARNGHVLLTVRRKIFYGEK

SYNPO2L, Q9H987 = molecular target: T4, SYNPO2L, Q9H987
T4 sequence (Q9H987 1-98, limits assumed, looked up): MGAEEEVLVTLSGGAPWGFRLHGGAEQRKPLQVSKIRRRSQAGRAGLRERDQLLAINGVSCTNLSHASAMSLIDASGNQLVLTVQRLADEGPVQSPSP

PARD3B_2, Q8TEW8 = molecular target: PARD3B_2, Q8TEW8
Chain of PARD3B_2, Q8TEW8 (Q8TEW8 376-471): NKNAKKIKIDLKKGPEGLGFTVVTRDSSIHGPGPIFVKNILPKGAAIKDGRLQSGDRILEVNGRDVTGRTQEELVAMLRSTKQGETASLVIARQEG

RGS12, O14924 = molecular target: T5, RGS12, O14924
T5 sequence (O14924 17-108, limits assumed, looked up): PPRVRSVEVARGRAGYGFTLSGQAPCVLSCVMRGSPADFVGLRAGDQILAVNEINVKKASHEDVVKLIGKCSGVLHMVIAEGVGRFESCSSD

MPDZ_13, O75970 = molecular target: T6, MPDZ_13, O75970
T6 sequence (O75970 1982-2070, limits assumed, looked up): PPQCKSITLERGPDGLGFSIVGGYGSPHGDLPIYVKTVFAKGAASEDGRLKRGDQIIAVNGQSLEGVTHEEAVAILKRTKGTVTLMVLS

NHERF3_2, Q5T2W1 = molecular target: T7, NHERF3_2, Q5T2W1
T7 sequence (Q5T2W1 129-225, limits assumed, looked up): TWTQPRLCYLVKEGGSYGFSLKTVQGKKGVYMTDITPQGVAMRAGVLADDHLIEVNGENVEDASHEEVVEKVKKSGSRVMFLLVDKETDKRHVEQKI

PDZD9, Q8IXQ8 = molecular target: PDZD9, Q8IXQ8
Chain of PDZD9, Q8IXQ8 (Q8IXQ8 23-120): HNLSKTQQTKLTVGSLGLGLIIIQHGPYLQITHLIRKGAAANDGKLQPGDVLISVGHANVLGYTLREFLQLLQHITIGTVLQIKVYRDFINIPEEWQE

USH1C_2, Q9Y6N9 = molecular target: T8, USH1C_2, Q9Y6N9
T8 sequence (Q9Y6N9 206-303, limits assumed, looked up): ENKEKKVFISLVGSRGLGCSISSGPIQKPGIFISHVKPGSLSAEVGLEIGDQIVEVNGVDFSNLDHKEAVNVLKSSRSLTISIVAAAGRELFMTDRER

SHROOM2, Q13796 = molecular target: T9, SHROOM2, Q13796
T9 sequence (Q13796 21-118, limits assumed, looked up): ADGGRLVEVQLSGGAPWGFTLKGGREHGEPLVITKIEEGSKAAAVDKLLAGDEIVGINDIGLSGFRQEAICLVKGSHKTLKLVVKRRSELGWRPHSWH

PDZD2_3, O15018 = molecular target: T10, PDZD2_3, O15018
T10 sequence (O15018 581-682, limits assumed, looked up): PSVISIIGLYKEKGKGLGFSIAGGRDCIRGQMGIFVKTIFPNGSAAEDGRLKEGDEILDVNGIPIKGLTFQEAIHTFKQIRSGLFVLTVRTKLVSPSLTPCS

PDZD11, Q5EBL8 = molecular target: T11, PDZD11, Q5EBL8
T11 sequence (Q5EBL8 42-139, limits assumed, looked up): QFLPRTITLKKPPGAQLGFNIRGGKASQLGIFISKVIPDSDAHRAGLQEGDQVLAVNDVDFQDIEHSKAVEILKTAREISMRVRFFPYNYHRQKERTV

APBA3_2, O96018 = molecular target: T12, APBA3_2, O96018
T12 sequence (O96018 480-570, limits assumed, looked up): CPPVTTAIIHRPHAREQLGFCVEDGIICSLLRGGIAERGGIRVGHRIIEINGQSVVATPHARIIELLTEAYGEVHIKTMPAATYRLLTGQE

PREX2_2, Q70Z35 = molecular target: T13, PREX2_2, Q70Z35
T13 sequence (Q70Z35 672-764, limits assumed, looked up): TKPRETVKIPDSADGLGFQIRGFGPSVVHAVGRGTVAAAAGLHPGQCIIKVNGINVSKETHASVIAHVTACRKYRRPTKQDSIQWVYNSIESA

RIMS2, Q9UQ26 = molecular target: RIMS2, Q9UQ26
Chain of RIMS2, Q9UQ26 (Q9UQ26 637-758): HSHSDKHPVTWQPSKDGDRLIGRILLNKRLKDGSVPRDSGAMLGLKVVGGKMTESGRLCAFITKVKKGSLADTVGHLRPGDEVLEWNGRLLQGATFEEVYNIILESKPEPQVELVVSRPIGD

RGS3, P49796-9 = molecular target: RGS3, P49796-9
Chain of RGS3, P49796-9 (P49796 other isoform, or with tags, fused parts or gaps): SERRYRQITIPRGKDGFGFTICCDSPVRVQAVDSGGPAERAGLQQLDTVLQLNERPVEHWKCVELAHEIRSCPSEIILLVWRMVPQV

PTPN13_2, Q12923 = molecular target: PTPN13_2, Q12923
Chain of PTPN13_2, Q12923 (Q12923 1363-1462): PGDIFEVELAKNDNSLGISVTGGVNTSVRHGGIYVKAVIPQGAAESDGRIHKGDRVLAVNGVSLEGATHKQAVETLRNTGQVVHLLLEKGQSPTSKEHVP

SIPA1L3, O60292 = molecular target: T14, SIPA1L3, O60292
T14 sequence (O60292 961-1052, limits assumed, looked up): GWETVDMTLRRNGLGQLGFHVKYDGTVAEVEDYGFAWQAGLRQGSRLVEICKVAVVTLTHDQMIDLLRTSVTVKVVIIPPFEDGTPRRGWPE

INTU, Q9ULD6 = molecular target: T15, INTU, Q9ULD6
T15 sequence (Q9ULD6 180-273, limits assumed, looked up): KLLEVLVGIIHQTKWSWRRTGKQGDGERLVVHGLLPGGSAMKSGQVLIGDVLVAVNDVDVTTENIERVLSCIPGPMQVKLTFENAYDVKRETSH

IL16_2, Q14005 = molecular target: IL16_2, Q14005
Chain of IL16_2, Q14005 (Q14005 350-450): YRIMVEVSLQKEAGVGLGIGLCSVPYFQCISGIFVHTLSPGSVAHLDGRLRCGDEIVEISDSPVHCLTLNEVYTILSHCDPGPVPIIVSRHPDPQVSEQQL

[1] = plain residues with an end cap or a label only (N-terminal biotin on a linker: ado-ado)
[2] = modified: phospho on S at position -3 from the C-terminal residue
[3] = modified: acetyl on K at position -1 from the C-terminal residue
[4] = plain residues with an end cap or a label only (N-terminal biotin on a linker: (peg)3)

Binder: SSGSTSSSRI [ADGRG1, Q9Y653]
- pKd (RADIL, Q96JH8; [1]): below the threshold
- pKd (MAST2, Q6P0Q8; [1]): 4.68

Binder: EGGKKRESEA [APPL1, Q9UKG1]
- pKd (RADIL, Q96JH8; [1]): below the threshold
- pKd (MAST2, Q6P0Q8; [1]): below the threshold

Binder: GSSSKEGTSV [RRBP1, Q9P2E9]
- pKd (RADIL, Q96JH8; [1]): below the threshold
- pKd (MAST2, Q6P0Q8; [1]): 4.75

Binder: ADRDHASDQL [CTBP1, Q13363]
- pKd (RADIL, Q96JH8; [1]): below the threshold
- pKd (MAST2, Q6P0Q8; [1]): below the threshold

Binder: NLQEHSTTSV [RSBN1, Q5VWQ0]
- pKd (RADIL, Q96JH8; [1]): below the threshold
- pKd (MAST2, Q6P0Q8; [1]): 5.61

Binder: HLRQQGSVEV [EPHB6, O15197]
- pKd (RADIL, Q96JH8; [1]): 3.74
- pKd (MAST2, Q6P0Q8; [1]): 4.01

Binder: NPETRDETQL [KCNT1, Q5JUK3]
- pKd (RADIL, Q96JH8; [1]): below the threshold
- pKd (MAST2, Q6P0Q8; [1]): 5.68

Binder: FTLPAESSEI [PLEKHG7, Q6ZR37]
- pKd (RADIL, Q96JH8; [1]): below the threshold
- pKd (MAST2, Q6P0Q8; [1]): 5.6

Binder: PKLMGVETVV [DUSP10, Q9Y6W6]
- pKd (RADIL, Q96JH8; [1]): 4.5
- pKd (MAST2, Q6P0Q8; [1]): 5.17

Binder: RRVRKLPSTTL [RPS6KA1_-3P, Q15418]
- pKd (SHROOM4, Q9ULL8; [2]): below the threshold
- pKd (PDZD4, Q76G19; [2]): below the threshold
- pKd (MAGI3_4, Q5TCQ9; [2]): below the threshold
- pKd (RADIL, Q96JH8; [2]): below the threshold
- pKd (SYNPO2L, Q9H987; [2]): below the threshold
- pKd (PARD3B_2, Q8TEW8; [2]): below the threshold
- pKd (RGS12, O14924; [2]): below the threshold
- pKd (MPDZ_13, O75970; [2]): 3.72
- pKd (NHERF3_2, Q5T2W1; [2]): below the threshold
- pKd (PDZD9, Q8IXQ8; [2]): below the threshold
- pKd (USH1C_2, Q9Y6N9; [2]): below the threshold
- pKd (SHROOM2, Q13796; [2]): 3.71
- pKd (PDZD2_3, O15018; [2]): below the threshold
- pKd (PDZD11, Q5EBL8; [2]): below the threshold
- pKd (APBA3_2, O96018; [2]): below the threshold
- pKd (PREX2_2, Q70Z35; [2]): below the threshold
- pKd (RIMS2, Q9UQ26; [2]): below the threshold
- pKd (RGS3, P49796-9; [2]): below the threshold
- pKd (PTPN13_2, Q12923; [2]): below the threshold
- pKd (MAST2, Q6P0Q8; [2]): 4.21
- pKd (SIPA1L3, O60292; [2]): below the threshold
- pKd (INTU, Q9ULD6; [2]): below the threshold
- pKd (IL16_2, Q14005; [2]): below the threshold

Binder: TGLWKSETTV [ADGRA2, Q96PE1]
- pKd (RADIL, Q96JH8; [1]): 3.95
- pKd (MAST2, Q6P0Q8; [1]): 5.23

Binder: QLAEIAESGL [ITK, Q08881]
- pKd (RADIL, Q96JH8; [1]): below the threshold
- pKd (MAST2, Q6P0Q8; [1]): 5.28

Binder: VGIERETDVL [EZH1, Q92800]
- pKd (RADIL, Q96JH8; [1]): below the threshold
- pKd (MAST2, Q6P0Q8; [1]): 3.88

Binder: DEDQHTQITKV [PTEN_Ac, P60484]
- pKd (SHROOM4, Q9ULL8; [3]): below the threshold
- pKd (PDZD4, Q76G19; [3]): below the threshold
- pKd (MAGI3_4, Q5TCQ9; [3]): below the threshold
- pKd (RADIL, Q96JH8; [3]): 4.71
- pKd (SYNPO2L, Q9H987; [3]): below the threshold
- pKd (PARD3B_2, Q8TEW8; [3]): below the threshold
- pKd (RGS12, O14924; [3]): below the threshold
- pKd (MPDZ_13, O75970; [3]): 4.29
- pKd (NHERF3_2, Q5T2W1; [3]): 3.61
- pKd (PDZD9, Q8IXQ8; [3]): below the threshold
- pKd (USH1C_2, Q9Y6N9; [3]): below the threshold
- pKd (SHROOM2, Q13796; [3]): below the threshold
- pKd (PDZD2_3, O15018; [3]): below the threshold
- pKd (PDZD11, Q5EBL8; [3]): below the threshold
- pKd (APBA3_2, O96018; [3]): below the threshold
- pKd (PREX2_2, Q70Z35; [3]): below the threshold
- pKd (RIMS2, Q9UQ26; [3]): below the threshold
- pKd (RGS3, P49796-9; [3]): below the threshold
- pKd (PTPN13_2, Q12923; [3]): below the threshold
- pKd (MAST2, Q6P0Q8; [3]): 5.14
- pKd (SIPA1L3, O60292; [3]): below the threshold
- pKd (INTU, Q9ULD6; [3]): below the threshold
- pKd (IL16_2, Q14005; [3]): below the threshold

Binder: YDEPTTTTSVPL [SARS-Cov2-3a, P0DTC3]
- pKd (SHROOM4, Q9ULL8; [4]): below the threshold
- pKd (PDZD4, Q76G19; [4]): below the threshold
- pKd (MAGI3_4, Q5TCQ9; [4]): below the threshold
- pKd (RADIL, Q96JH8; [4]): below the threshold
- pKd (SYNPO2L, Q9H987; [4]): below the threshold
- pKd (PARD3B_2, Q8TEW8; [4]): below the threshold
- pKd (RGS12, O14924; [4]): below the threshold
- pKd (MPDZ_13, O75970; [4]): below the threshold
- pKd (NHERF3_2, Q5T2W1; [4]): below the threshold
- pKd (PDZD9, Q8IXQ8; [4]): below the threshold
- pKd (USH1C_2, Q9Y6N9; [4]): below the threshold
- pKd (SHROOM2, Q13796; [4]): 3.81
- pKd (PDZD2_3, O15018; [4]): below the threshold
- pKd (PDZD11, Q5EBL8; [4]): below the threshold
- pKd (APBA3_2, O96018; [4]): below the threshold
- pKd (PREX2_2, Q70Z35; [4]): below the threshold
- pKd (RIMS2, Q9UQ26; [4]): below the threshold
- pKd (RGS3, P49796-9; [4]): 4.19
- pKd (PTPN13_2, Q12923; [4]): below the threshold
- pKd (MAST2, Q6P0Q8; [4]): below the threshold
- pKd (SIPA1L3, O60292; [4]): below the threshold
- pKd (INTU, Q9ULD6; [4]): 3.86
- pKd (IL16_2, Q14005; [4]): below the threshold

Binder: PDSNPEESSV [SEMA4C, Q9C0C4]
- pKd (RADIL, Q96JH8; [1]): below the threshold
- pKd (MAST2, Q6P0Q8; [1]): 5.36

Binder: EWTDERQSKV [GAB3, Q8WWW8]
- pKd (RADIL, Q96JH8; [1]): 3.61
- pKd (MAST2, Q6P0Q8; [1]): 4.8

Binder: IPGKEFDTPL [PLCB1, Q9NQ66]
- pKd (RADIL, Q96JH8; [1]): below the threshold
- pKd (MAST2, Q6P0Q8; [1]): 4.95

Binder: PEEGKKQSQC [GAGE12J, A6NER3]
- pKd (RADIL, Q96JH8; [1]): below the threshold
- pKd (MAST2, Q6P0Q8; [1]): 4.33

Binder: ASGLDKRDYV [CLDN9, O95484]
- pKd (RADIL, Q96JH8; [1]): 4.08
- pKd (MAST2, Q6P0Q8; [1]): 3.5
